Source: IntAct's records for PubMed 19219046

Target: DDX19B, Q9UMR2-1
Sequence (Q9UMR2 whole entry): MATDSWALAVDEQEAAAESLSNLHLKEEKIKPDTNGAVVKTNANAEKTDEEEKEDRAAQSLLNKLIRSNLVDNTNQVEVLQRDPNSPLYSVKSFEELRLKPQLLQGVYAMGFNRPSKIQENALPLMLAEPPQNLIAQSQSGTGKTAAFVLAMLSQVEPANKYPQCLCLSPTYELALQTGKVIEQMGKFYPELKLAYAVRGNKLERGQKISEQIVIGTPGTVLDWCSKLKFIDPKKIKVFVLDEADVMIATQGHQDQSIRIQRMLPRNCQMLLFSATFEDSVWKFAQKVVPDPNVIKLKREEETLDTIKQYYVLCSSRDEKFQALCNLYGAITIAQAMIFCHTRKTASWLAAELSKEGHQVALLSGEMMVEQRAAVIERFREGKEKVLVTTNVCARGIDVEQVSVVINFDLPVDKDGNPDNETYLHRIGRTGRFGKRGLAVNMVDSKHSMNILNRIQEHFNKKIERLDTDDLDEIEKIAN

Chain of Nuclear pore complex protein Nup214 (Homo sapiens), P35658-1 D359R (P35658 whole entry D359R, one chain of several): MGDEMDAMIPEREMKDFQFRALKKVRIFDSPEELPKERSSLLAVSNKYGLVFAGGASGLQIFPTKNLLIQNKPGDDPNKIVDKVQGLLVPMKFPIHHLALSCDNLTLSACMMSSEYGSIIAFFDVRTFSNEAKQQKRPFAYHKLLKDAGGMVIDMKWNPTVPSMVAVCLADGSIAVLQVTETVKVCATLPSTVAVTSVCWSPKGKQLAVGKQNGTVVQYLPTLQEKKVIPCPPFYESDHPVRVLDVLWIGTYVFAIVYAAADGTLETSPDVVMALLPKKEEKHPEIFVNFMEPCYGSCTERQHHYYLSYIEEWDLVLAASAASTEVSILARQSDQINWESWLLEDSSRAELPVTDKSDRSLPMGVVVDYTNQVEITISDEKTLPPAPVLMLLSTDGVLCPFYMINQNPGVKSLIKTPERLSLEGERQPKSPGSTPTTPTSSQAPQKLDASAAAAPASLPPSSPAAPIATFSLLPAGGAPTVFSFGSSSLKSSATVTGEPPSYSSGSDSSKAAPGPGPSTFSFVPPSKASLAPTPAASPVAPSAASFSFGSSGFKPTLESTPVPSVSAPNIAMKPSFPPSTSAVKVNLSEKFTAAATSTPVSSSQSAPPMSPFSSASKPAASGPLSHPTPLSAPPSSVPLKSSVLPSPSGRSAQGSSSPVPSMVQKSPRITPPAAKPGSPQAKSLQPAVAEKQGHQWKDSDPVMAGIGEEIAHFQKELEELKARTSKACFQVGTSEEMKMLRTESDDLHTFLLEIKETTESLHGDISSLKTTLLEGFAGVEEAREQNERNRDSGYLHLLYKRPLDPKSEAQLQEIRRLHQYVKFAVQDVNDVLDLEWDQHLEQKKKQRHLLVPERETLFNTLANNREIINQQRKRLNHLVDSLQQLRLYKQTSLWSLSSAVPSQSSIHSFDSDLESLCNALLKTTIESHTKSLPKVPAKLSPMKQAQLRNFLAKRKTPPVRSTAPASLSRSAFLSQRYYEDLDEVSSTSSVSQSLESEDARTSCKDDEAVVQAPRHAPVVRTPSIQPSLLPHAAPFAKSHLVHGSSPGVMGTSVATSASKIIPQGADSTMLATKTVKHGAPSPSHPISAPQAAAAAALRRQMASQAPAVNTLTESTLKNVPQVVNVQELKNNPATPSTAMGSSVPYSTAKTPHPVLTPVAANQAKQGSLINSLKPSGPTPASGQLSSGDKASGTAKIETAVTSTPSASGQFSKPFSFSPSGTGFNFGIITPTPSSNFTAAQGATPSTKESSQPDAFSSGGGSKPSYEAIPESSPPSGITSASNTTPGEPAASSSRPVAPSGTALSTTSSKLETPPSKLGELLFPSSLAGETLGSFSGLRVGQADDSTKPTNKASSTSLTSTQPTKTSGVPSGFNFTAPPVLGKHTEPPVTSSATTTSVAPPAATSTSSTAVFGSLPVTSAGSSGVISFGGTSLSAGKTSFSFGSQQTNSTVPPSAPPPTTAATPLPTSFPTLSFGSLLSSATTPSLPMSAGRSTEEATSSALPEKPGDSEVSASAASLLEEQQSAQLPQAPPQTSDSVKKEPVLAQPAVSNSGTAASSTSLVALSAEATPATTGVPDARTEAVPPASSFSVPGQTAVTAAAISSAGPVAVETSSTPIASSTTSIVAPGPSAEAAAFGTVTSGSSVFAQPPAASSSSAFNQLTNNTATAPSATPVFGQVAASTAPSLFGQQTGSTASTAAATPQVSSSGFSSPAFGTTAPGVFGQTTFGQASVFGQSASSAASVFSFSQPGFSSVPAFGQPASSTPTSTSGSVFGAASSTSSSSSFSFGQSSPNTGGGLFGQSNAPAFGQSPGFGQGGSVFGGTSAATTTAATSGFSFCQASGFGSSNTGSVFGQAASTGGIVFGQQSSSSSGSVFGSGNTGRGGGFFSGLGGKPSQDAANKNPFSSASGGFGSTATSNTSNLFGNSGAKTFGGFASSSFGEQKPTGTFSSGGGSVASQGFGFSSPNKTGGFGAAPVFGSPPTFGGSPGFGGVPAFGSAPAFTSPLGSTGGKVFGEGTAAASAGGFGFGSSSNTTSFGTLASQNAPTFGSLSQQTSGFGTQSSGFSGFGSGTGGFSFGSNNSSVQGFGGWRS
Chain of Nuclear pore complex protein Nup214 (Homo sapiens), P35658-1 V353A (P35658 whole entry V353A, one chain of several): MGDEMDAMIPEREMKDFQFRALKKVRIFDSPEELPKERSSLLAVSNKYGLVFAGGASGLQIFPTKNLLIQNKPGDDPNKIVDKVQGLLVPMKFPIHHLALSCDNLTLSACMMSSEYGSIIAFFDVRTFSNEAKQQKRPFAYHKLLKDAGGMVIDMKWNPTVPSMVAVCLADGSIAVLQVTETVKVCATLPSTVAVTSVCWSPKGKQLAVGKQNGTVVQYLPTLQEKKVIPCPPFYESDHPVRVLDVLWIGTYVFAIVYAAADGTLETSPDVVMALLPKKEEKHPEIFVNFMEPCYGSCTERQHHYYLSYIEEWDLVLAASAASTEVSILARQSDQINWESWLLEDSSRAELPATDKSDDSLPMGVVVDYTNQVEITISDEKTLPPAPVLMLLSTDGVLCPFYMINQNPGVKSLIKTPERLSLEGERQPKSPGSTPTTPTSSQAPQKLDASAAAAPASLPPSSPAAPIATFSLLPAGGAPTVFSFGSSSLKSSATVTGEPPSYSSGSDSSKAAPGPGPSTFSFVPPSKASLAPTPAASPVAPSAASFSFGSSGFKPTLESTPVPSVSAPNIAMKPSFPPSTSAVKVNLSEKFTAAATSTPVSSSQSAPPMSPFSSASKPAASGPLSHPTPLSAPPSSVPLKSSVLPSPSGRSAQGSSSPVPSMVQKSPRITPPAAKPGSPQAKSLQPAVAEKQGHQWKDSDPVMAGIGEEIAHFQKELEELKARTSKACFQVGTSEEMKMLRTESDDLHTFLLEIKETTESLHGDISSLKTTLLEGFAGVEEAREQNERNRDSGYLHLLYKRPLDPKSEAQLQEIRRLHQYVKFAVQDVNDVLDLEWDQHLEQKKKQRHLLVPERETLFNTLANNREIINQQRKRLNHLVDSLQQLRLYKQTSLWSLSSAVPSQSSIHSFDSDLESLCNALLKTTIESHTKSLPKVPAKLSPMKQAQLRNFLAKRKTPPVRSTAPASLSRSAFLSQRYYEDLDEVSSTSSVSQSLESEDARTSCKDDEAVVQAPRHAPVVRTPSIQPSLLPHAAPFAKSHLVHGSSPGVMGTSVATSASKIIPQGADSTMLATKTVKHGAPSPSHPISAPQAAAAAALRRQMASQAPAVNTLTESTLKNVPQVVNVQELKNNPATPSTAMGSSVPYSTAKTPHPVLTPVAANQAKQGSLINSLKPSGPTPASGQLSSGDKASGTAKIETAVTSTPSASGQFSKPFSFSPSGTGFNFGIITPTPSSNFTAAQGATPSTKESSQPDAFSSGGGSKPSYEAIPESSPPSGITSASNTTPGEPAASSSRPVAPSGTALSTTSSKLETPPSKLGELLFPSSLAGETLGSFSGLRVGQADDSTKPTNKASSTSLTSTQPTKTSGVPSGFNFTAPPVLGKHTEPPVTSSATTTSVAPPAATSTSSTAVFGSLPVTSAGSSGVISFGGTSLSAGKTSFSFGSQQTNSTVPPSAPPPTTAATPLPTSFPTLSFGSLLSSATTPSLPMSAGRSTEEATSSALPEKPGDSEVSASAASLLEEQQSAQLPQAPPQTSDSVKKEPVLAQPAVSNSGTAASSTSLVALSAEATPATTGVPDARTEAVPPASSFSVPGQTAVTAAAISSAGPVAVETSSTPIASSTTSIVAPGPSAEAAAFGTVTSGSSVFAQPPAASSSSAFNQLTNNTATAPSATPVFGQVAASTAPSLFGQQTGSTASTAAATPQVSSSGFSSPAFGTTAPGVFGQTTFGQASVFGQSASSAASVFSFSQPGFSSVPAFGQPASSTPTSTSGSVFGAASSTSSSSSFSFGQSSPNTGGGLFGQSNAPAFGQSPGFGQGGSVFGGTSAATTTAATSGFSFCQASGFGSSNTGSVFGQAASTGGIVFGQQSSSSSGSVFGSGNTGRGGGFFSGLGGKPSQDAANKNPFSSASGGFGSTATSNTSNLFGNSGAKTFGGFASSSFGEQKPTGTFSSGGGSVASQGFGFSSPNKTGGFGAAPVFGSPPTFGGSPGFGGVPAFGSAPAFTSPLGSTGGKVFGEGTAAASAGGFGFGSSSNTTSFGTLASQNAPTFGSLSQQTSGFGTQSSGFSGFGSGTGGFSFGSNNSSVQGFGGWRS

Substance | effect of a mutation on the interaction
Nuclear pore complex protein Nup214 (Homo sapiens), P35658-1 V353A | decreasing interaction
Nuclear pore complex protein Nup214 (Homo sapiens), P35658-1 D359R | disrupting interaction
